Measured values from the Immune Epitope Database (IEDB).

Key:
[1] = molecular target: HLA-A*30:01; experiment: IEDB peptide-MHC binding, purified MHC/competitive/fluorescence; filed as Kd, often an IC50 or EC50 that approximates it; ≥ and ≤ were set here for values at or beyond the usual limits of such assays; conditions: source organism: Listeria monocytogenes J0161
[2] = molecular target: HLA-B*40:01; experiment: as above; conditions: source organism: Listeria monocytogenes J0161
[3] = molecular target: HLA-A*11:01; experiment: as above; conditions: source organism: Listeria monocytogenes J0161
[4] = molecular target: HLA-B*27:05; experiment: as above; conditions: source organism: Listeria monocytogenes J0161
[5] = molecular target: HLA-B*07:02; experiment: as above; conditions: source organism: Listeria monocytogenes J0161
[6] = molecular target: HLA-A*24:03; experiment: as above; conditions: source organism: Listeria monocytogenes J0161
[7] = molecular target: HLA-B*58:01; experiment: as above; conditions: source organism: Listeria monocytogenes J0161
[8] = molecular target: HLA-A*01:01; experiment: as above; conditions: source organism: Listeria monocytogenes J0161
[9] = molecular target: HLA-B*08:01; experiment: as above; conditions: source organism: Listeria monocytogenes J0161
[10] = molecular target: HLA-B*44:02; experiment: as above; conditions: source organism: Listeria monocytogenes J0161
[11] = molecular target: HLA-A*66:01; experiment: as above; conditions: source organism: Listeria monocytogenes J0161
[12] = molecular target: HLA-B*14:02; experiment: as above; conditions: source organism: Listeria monocytogenes J0161
[13] = molecular target: HLA-B*53:01; experiment: as above; conditions: source organism: Listeria monocytogenes J0161
[14] = molecular target: HLA-B*27:03; experiment: IEDB peptide-MHC binding, purified MHC/direct/fluorescence; filed as Kd, often an IC50 or EC50 that approximates it; ≥ and ≤ were set here for values at or beyond the usual limits of such assays; conditions: source organism: Listeria monocytogenes serotype 4b str. H7858
[15] = molecular target: HLA-A*69:01; experiment: as above
[16] = molecular target: HLA-A*02:19; experiment: as above; conditions: source organism: Listeria monocytogenes serotype 4b str. H7858
[17] = molecular target: HLA-B*57:01; experiment: as above; conditions: source organism: Listeria monocytogenes serotype 4b str. H7858
[18] = molecular target: HLA-A*26:01; experiment: as above; conditions: source organism: Listeria monocytogenes serotype 4b str. H7858
[19] = molecular target: HLA-B*51:01; experiment: as above; conditions: source organism: Listeria monocytogenes serotype 4b str. H7858
[20] = molecular target: HLA-A*03:01; experiment: as above
[21] = molecular target: HLA-A*02:12; experiment: as above; conditions: source organism: Listeria monocytogenes serotype 4b str. H7858
[22] = molecular target: HLA-B*18:01; experiment: as above; conditions: source organism: Listeria monocytogenes serotype 4b str. H7858
[23] = molecular target: HLA-B*39:01; experiment: as above; conditions: source organism: Listeria monocytogenes serotype 4b str. H7858
[24] = molecular target: HLA-A*02:06; experiment: as above; conditions: source organism: Listeria monocytogenes serotype 4b str. H7858
[25] = molecular target: HLA-A*23:01; experiment: as above; conditions: source organism: Listeria monocytogenes serotype 4b str. H7858
[26] = molecular target: HLA-A*02:03; experiment: as above; conditions: source organism: Listeria monocytogenes serotype 4b str. H7858
[27] = molecular target: HLA-A*29:02; experiment: as above; conditions: source organism: Listeria monocytogenes serotype 4b str. H7858
[28] = molecular target: HLA-A*02:01; experiment: as above
[29] = molecular target: HLA-A*02:50; experiment: IEDB peptide-MHC binding, purified MHC/competitive/fluorescence; filed as Kd, often an IC50 or EC50 that approximates it; ≥ and ≤ were set here for values at or beyond the usual limits of such assays
[30] = molecular target: HLA-B*40:01; experiment: IEDB peptide-MHC binding, purified MHC/direct/fluorescence; filed as Kd, often an IC50 or EC50 that approximates it; ≥ and ≤ were set here for values at or beyond the usual limits of such assays; conditions: source organism: Salmonella enterica
[31] = molecular target: HLA-A*11:01; experiment: as above; conditions: source organism: Salmonella enterica
[32] = molecular target: HLA-B*27:05; experiment: as above; conditions: source organism: Salmonella enterica
[33] = molecular target: HLA-B*07:02; experiment: as above; conditions: source organism: Salmonella enterica
[34] = molecular target: HLA-B*15:01; experiment: as above; conditions: source organism: Salmonella enterica
[35] = molecular target: HLA-A*02:16; experiment: as above
[36] = molecular target: HLA-B*58:01; experiment: as above; conditions: source organism: Salmonella enterica
[37] = molecular target: HLA-A*01:01; experiment: as above; conditions: source organism: Salmonella enterica
[38] = molecular target: HLA-B*08:01; experiment: as above; conditions: source organism: Salmonella enterica subsp. enterica serovar Typhimurium str. LT2
[39] = molecular target: HLA-B*44:02; experiment: as above; conditions: source organism: Salmonella enterica
[40] = molecular target: HLA-C*14:02; experiment: as above; conditions: source organism: Salmonella enterica subsp. enterica serovar Typhi str. CT18
[41] = molecular target: HLA-B*08:02; experiment: IEDB peptide-MHC binding, purified MHC/competitive/fluorescence; filed as Kd, often an IC50 or EC50 that approximates it; ≥ and ≤ were set here for values at or beyond the usual limits of such assays; conditions: source organism: Human immunodeficiency virus 1
[42] = molecular target: HLA-A*26:01; experiment: as above; conditions: source organism: Human immunodeficiency virus 1
[43] = molecular target: HLA-A*68:02; experiment: as above; conditions: source organism: Human immunodeficiency virus 1
[44] = molecular target: HLA-B*18:01; experiment: as above; conditions: source organism: Human immunodeficiency virus 1
[45] = molecular target: HLA-B*39:01; experiment: as above; conditions: source organism: Human immunodeficiency virus 1
[46] = molecular target: HLA-A*02:06; experiment: as above; conditions: source organism: Human immunodeficiency virus 1
[47] = molecular target: HLA-A*02:03; experiment: as above; conditions: source organism: Human immunodeficiency virus 1
[48] = molecular target: HLA-A*02:01; experiment: as above; conditions: source organism: Human immunodeficiency virus 1
[49] = molecular target: HLA-A*02:11; experiment: IEDB peptide-MHC binding, purified MHC/direct/fluorescence; filed as Kd, often an IC50 or EC50 that approximates it; ≥ and ≤ were set here for values at or beyond the usual limits of such assays; conditions: source organism: Vibrio vulnificus CMCP6
[50] = source organism: Listeria monocytogenes serotype 4b str. H7858
[51] = source organism: Salmonella enterica
[52] = source organism: Vibrio vulnificus

**Q.** With AALEGLSGF as the sequence, how does the Kd [1] read?
**A.** ≥ 5000 nM

**Q.** What about the Kd [2] of the same sequence?
**A.** ≥ 5000 nM

**Q.** What about the Kd [3] of the same sequence?
**A.** ≥ 5000 nM

**Q.** What about the Kd [4] of the same sequence?
**A.** ≥ 5000 nM

**Q.** What about the Kd [5] of the same sequence?
**A.** ≥ 5000 nM

**Q.** And the Kd [6]?
**A.** 771 nM

**Q.** And the Kd [7]?
**A.** ≥ 5000 nM

**Q.** And the Kd [8]?
**A.** ≥ 5000 nM

**Q.** And the Kd [9]?
**A.** ≥ 5000 nM

**Q.** And the Kd [10]?
**A.** ≥ 5000 nM

**Q.** What about the Kd [11] of the same sequence?
**A.** ≥ 5000 nM

**Q.** And the Kd [12]?
**A.** ≥ 5000 nM

**Q.** And the Kd [13]?
**A.** ≥ 5000 nM

**Q.** What about the Kd [14] of the same sequence?
**A.** ≥ 20000 nM

**Q.** And the Kd [15, 50]?
**A.** ≥ 20000 nM

**Q.** What about the Kd [16] of the same sequence?
**A.** ≥ 20000 nM

**Q.** And the Kd [17]?
**A.** ≥ 20000 nM

**Q.** And the Kd [18]?
**A.** ≥ 20000 nM

**Q.** What about the Kd [19] of the same sequence?
**A.** ≥ 20000 nM

**Q.** What about the Kd [20, 50] of the same sequence?
**A.** ≥ 20000 nM

**Q.** And the Kd [21]?
**A.** ≥ 20000 nM

**Q.** And the Kd [22]?
**A.** ≥ 20000 nM

**Q.** What about the Kd [23] of the same sequence?
**A.** ≥ 20000 nM

**Q.** And the Kd [24]?
**A.** 1920 nM

**Q.** What about the Kd [25] of the same sequence?
**A.** 622 nM

**Q.** What about the Kd [26] of the same sequence?
**A.** ≥ 20000 nM

**Q.** And the Kd [27]?
**A.** 542 nM

**Q.** What about the Kd [28, 50] of the same sequence?
**A.** 1900 nM

**Q.** For AMMWRIAQL, which Kd ([29]; source organism: Salmonella enterica subsp. enterica serovar Typhi) is on record?
**A.** ≤ 0.1 nM

**Q.** And the Kd [15, 51]?
**A.** 2000 nM

**Q.** What about the Kd [30] of the same sequence?
**A.** 2280 nM

**Q.** What about the Kd [31] of the same sequence?
**A.** ≥ 20000 nM

**Q.** What about the Kd [20, 51] of the same sequence?
**A.** ≥ 20000 nM

**Q.** What about the Kd [32] of the same sequence?
**A.** 348 nM

**Q.** What about the Kd [33] of the same sequence?
**A.** ≥ 20000 nM

**Q.** What about the Kd [34] of the same sequence?
**A.** 171 nM

**Q.** And the Kd ([35]; source organism: Salmonella enterica subsp. enterica serovar Typhimurium str. LT2)?
**A.** ≤ 1 nM

**Q.** And the Kd [36]?
**A.** ≥ 20000 nM

**Q.** What about the Kd [37] of the same sequence?
**A.** ≥ 20000 nM

**Q.** And the Kd [38]?
**A.** 612 nM

**Q.** What about the Kd [39] of the same sequence?
**A.** ≥ 20000 nM

**Q.** And the Kd [40]?
**A.** 118 nM

**Q.** And the Kd [28, 51]?
**A.** 26.2 nM

**Q.** Which results are given for IEVKDTKEAL?
**A.** Kd [41]: ≥ 20000 nM; Kd [42]: ≥ 20000 nM; Kd [43]: 766 nM; Kd [44]: 314 nM; Kd [45]: ≥ 20000 nM; Kd [46]: 574 nM; Kd [47]: ≥ 20000 nM; Kd [48]: 681 nM

**Q.** Which results are given for QLAFTYCQV?
**A.** Kd ([29]; source organism: Vibrio vulnificus YJ016): ≤ 0.1 nM; Kd [15, 52]: 153 nM; Kd [49]: 2 nM; Kd ([35]; source organism: Vibrio vulnificus CMCP6): 21 nM; Kd [28, 52]: 567 nM
